# Experiment: soluble on expression in E. coli; label from the status in PepcDB or PDB records
row,Sequence,soluble on expression in E. coli
1,MGSDKIHHHHHHMDISGRDVETRLTLAREFMSGVDELPTVPDIVLRIAGKLNDPDVAIDEVADLLLQDQVLTARVVHLANSPLYSAARPISSIRDAVIYLGLDLLREAIFTCAIVDLFKTGKGPLNRSTLWAHSLGVARIAKLIAERTGFLNPVNVYVAGLLHDVGEVFINFFRGKEFSQVVTLVDEEKITFGQAEERLFGTSHCEVGFALAKRWSLNEFICDTILYHHDIEAVPYKQAAIVAMVAFADEYCTLRRLGFEGHKPVDSVRTLLENHPSWGVIRRSLGGSDFDEKLIVAELDSSIVEIRAAVDELFLL,not soluble
2,MGSDKIHHHHHHMERRTILVTGASGFVGGALCRQLATLGSFAIRAASRDLGGASVAGIQAVTVADLSATTDWARALSGVDLVVHAAARVHVMKETASDSLAEFRRVNVDGTLNLARQAAAAGVRRFIFISSIKVNGESSQPGQPLRADDSPAPQDAYGVSKHEAEQGLRQLAAATGMEVVVIRPVLVYGPGVKANFHSMMRWLQRGVPLPFGAVCNRRSLVSLANLVDLVVTCIDHPRAANQTFLASDGDDVSLTQLLRALGLALGRPARLLPVPAGLLRGAVLLIGRRDLAQRLFGTLQVDIEKNRQLLGWYPPCTLEQGLNMTARSFLGARRP,not soluble
3,MSLTITLRVLGTSVTLLESLRERAEQELGIKLVYQIHDVQTAQRIAVMQPDSYDLYDQWFHNVDFVWPARAIQPIDTRRIALWHEINDLPKRGRLRPTDQPGSGSVPSERLFVQHDGSLGSTVTERISMLPLTHNADSFAYRPERLPEGLSPADESWGWLLDSAWGGRIALQSDAAIGALDAALAVQGAGLAQFNDIGNMSIEEIDLLADVLVRKQQQGHFGAFWSDDEEAAELMLSPTIDIQSLWSPTLVRLHRAGVKYRVAVPKEGYRGWFGGLSLSRYAKGPVLDAAYAYLNWWLSGWPGAVMARQGYYIGNPARSRDHLSAAEWDYWYAGLPAREQLLGSDGLPLIDAGEIRDGGSYEERMGHIAVWNSVMNEHNYLVRRWSDILRASGKSSAKAREGHHHHHH,soluble
4,MLERHDRLETLRKLKELQERIAELAYLLTGEEPAAWTPRVDLLETEEHYVLLVDLPGVRPEDLELLEEGQRVTLAGVRHPLPGTYLLEERPMGTFRRTLDLPGPIEEGTAQATLRNGVLEVRFRKRPATALPLKEA,soluble
5,MAKSSERFESLRRDIDALARRLDVPSVLIMRSLPRHMRVEASAGRLEDTYPIGAEGRKSVHEDGAKPLYCERVVDRDAPLHVRDSRQETEWAGNEDEVEFGLSNYLGYPVHAPDGTPYGTVCVLDSRPRDYSAEERALLEELRRKVEALLAETVS,not soluble
6,MESYSQRQDHELQALEAIYGSDFQDLRPDARGRVREPPEINLVLYPQGLAGEEVYVQVELRVKCPPTYPDVVPEIDLKNAKGLSNESVNLLKSHLEELAKKQCGEVMIFELAHHVQSFLSEHNK,soluble
7,GHMSETYDFLFKFLVIGNAGTGKSCLLHQFIEKKFKDDSNHTIGVEFGSKIINVGGKYVKLQIWDTAGQERFRSVTRSYYRGAAGALLVYDITSRETYNALTNWLTDARMLASQNIVIILCGNKKDLDADREVTFLEASRFAQENELMFLETSALTGENVEEAFVQCARKILNKIESGELDPERMG,soluble
8,MKSAYIFFNPKSGKDEQALAKEVKSYLIEHDFQDDYVRIITPSSVEEAVALAKKASEDHIDLVIPLGGDGTINKICGGVYAGGAYPTIGLVPAGTVNNFSKALNIPQERNLALENLLNGHVKSVDICKVNDDY,not soluble
9,MRIHILGICGTFMGGLAMLARSLGHEVTGSDANVYPPMSTLLEKQGIDLIQGYDASQLDPQPDLVIIGNAMTRGNPCVEAVLEKNIPFMSGPQWLHDFVLRDRWVLAVAGTHGKTTTAGMATWILEACGYKPGFVIGGVPGNFEVSARLGESPFFVIEADEYDCAFFDKRSKFVHYCPRTLILNNLEFDHADIFDDLKAIQKQFHHLVRIVPGQGRIIWPENDINLKQTMALGCWSEQELVGEQGHWQAKKLTTDASEWEVWLDGEKVGDVKWGLVGEHNMHNGLMAIAAARHVGVAPAEAASALGSFINARRRLELRGEANGVTVYDDFAHHPTAILATLAALRGKVGGTARIIAVLEPRSNTMKMGLCKDDLAPSLGRADEVFLLQPPHIPWQVAEVAEACVQPAHWSGDVDTLAEMVVKTAQPGDHILVMSNGGFGGIHQKLLDGLAKKAQNVTAY,not soluble
10,MQCSRALALRLILIAPNGTSVKTLLRPRLDESWEQFVRRRLATPIRRQRIACDRTQKEVADIVGVSHHSIQRWELAYVRSRPIAHIVWAQAHDFLLGLELIHALGRTPRRVSRAHHVHSGR,not soluble
11,MSLKITFTDKALDYLKRREILNKILILIADDGGGKYSIKGGGCAIGSHFSIIYVDKVDPDYPIKLENDQGINIYTSKYDTTMMGPNLVVDYANASLNLKSDEGLLDGGVDIGNGAELIKAQKNVKMTGVEWRCEGHHHHHH,soluble
12,MATSFPVLCLPNKNIRDVLQNMSTCNLIAFSLCSKATKSHVMHLKNDIQQISIKAFLSIDINILSHNQEVTSLVFFKKDYGRWNFESCESVTATETLTPLEPESDRVWVKRGFKLRDWIDHVMEIFNCSRIHEIYISRIGHEEHYISLSNAVKELKTETIFFSFCSDTVVQSVVANVQSNDISFNLSFNIEPSMQKHKVLTRHFERVSFSKDDTREALTLNDLLITNVSQLNISAHHLSFEELNIFIRHLISGSNRRLKIVGIVCAEATRNMQILLKGISHSVYSAELKIVARNENDYQLGDTIYVYQNCGRRLAMQTYLFEGVEKIVMRVY,not soluble
13,MVWFFFSCDEYNEEILKTNSGYWKETVSNTPIIGKWITSNGVKIGEKQVLVFQSYENINGSKSDWVMHVYQPTFLPPNQVIFRIYDV,soluble
14,MSLKITDVRAHQIRIPYDAGVASFRQGASAITALDMVIVEVTTDAGLTGWGDAFAYVCPRTTRSAVEEMIAPQARGLEVPDAAGIAAVMEQIQRNLHLFGRYGITMFAISGLDIALWDLAAKIKGVPVHRLLGETRRPAIPAYASLLRIGSPDNIAAECKKALALGYGAIKLHETTAPAVYAAREAIGPGVPLMVDMNCPLSGEQAIAFAGTCRDAQPMFLEEPVWPPEDFAALAEVRSKGGLGVAAGENACTEHQFRQMMNAGAVSHAQPSVIKVGGITEFLKVAALADRLGVKIVPHSPYFGPGLLATLHLLAGRDDGFVEMFYLKREACLWGGRADVDATGHVAVPTGLGLGYEPDRGVMERYRVAEGHHHHHH,not soluble
15,MSSERQLAGRIVVPGEPLPEEVEASPPYVIDYKGVKRATVVGLLREKGDGGGRAFVKLKEIYVPQAGDVVIGLIQSVGIMNWFVDINSPYVAVLSVQDFLGRPFNPAVDDMQSLLKVGDYIKAKVVAFDKTRSPLLTVQGEGLGRIVRGKIVEISPAKVPRVIGRKMSMLKTLEEKTECKIFVARNGRIHLECPNEDLEAIAVMAIKIIDEEAYTSGLTKRIIKFIEEERRIREV,soluble
16,SLFHLLGAQQNQKLKRRRFFCPVCGGELAVKLGLQKAPHFAHKQNKSCAIDIEPESAYHLEGKRQLYVWLKTQRASPILEPYIRTINQRPDVMARIKEHMLAVEYQCATIAPDVFQKRTEGFKQEGIIPQWIMGYSRLKRTASSFYQLSTFHWQFINASPYRELICYCPERRSFLRLSHIIPFYTNHSYSSVQTIPIHRAGAGDLFFTEPKPSIQYSGWTKAIHRFRHKPHRFNSKETNRLRLLFYEKRQTPFSFLPTEVFVPVRKGAVFKSPVFVWQGFLYLFMTDLGGKRAPIRFSAVLQQCKLHIHNKNIALRSECSEECLSEAVKQYIDFLCKKGFLRETQKEVYVLNQPAGGIHSMQDLIERDRSCFIE,soluble
17,MIAQLPSELLSLQLPLRIRIGDAQAFDLGPDPQVTMVIRDPSLLTEITHPSLDALGKAYVEKRLDIEGPISQVIGIGDALSEALGEPDGGAPPVRESHDKDTDAEAIHYHYDLSNDFYQLWLDPEMVYSCAYFETGKEDLATAQLAKLRHLCRKLRLQPGEKLLDVGCGWGGLARLAAREFGVEVTGITLSKEQLALGRERVKAEGLEDRVTLKLLDYRDLPRDGRFDKVVSVGMFEHVGHANLGLYFQQLYEAVRPGGLVMNHGITSRYTDGRPVGKGAGDFIDRYVFPHGELPHLSLAVARMSEAGLEVVDVESLRLHYARTLDFWSANLEARLKEAARLVPEETLRIWRLYLAGCAYGFKRGWINL,not soluble

# From the DeepSol protein solubility set
